Here are results for three molecules from paper PMC6614797.

Assay in all cases: analytical size exclusion chromatography
Data set [1] addresses NusB;NusEdelta (S10 lacking the ribosome binding loop) (Escherichia coli;Escherichia coli, UniProt P0A780;P0A7R5 1-139;1-45+68-103, |internal_change).
Data set [2] has as its target T1, SuhB (Escherichia coli, UniProt P0ADG4 1-267).
In data set [3] the target is RNA polymerase;NusA;NusB;NusEdelta (S10 lacking the ribosome binding loop);NusG;SuhB (Escherichia coli;Escherichia …, UniProt P0A7Z4;P0A8V2;P0A8T7;P0A800;P0AFF6;P0A780;P0A7R5;P0AFG0;P0ADG4 …, |||internal_change||).
The target of data set [4] is T1, SuhB. The source holds these as a separate data set.

Read-outs that look alike come from different tables or passages of the source.

B1: rrnG RNA (structured_RNA)
RNA: GGGCCGCGCCGCUGAGAAAAAGCGAAGCGGCACUGCUCUUUAACAAUUUAUCAGACAAUCUGUGUGGG
For B1, the binding result (in data set [1]; in the data set with SuhB [2]) was “binds” each time.

B2: rrnG-EC scaffold (T-DNA, NT-DNA, rrnG RNA) (mixed)
DNA 1: ATCCGTATCTTCGAGTGCCCACACAGATTGTCTCATAAATTGTTAAAGAGCAGTGCCGC
DNA 2: GCGGCACTGCTCTTTAACAATTTATCAGACTTGTCCACGCTCGTCTCGAAGATACGGAT
RNA: GGGCCGCGCCGCUGAGAAAAAGCGAAGCGGCACUGCUCUUUAACAAUUUAUCAGACAAUCUGUGUGGG
Regarding B2, the binding result in data set [3] was “binds”. Consider UUUUUGAGUCUGCGGCGCGCG (ssRNA) [random RNA], for which, in the data set with SuhB [4], the binding result is listed as “no binding”.
